{"source": "patent US20220347267A1", "about": "“METHODS TO IMPROVE PATIENT RESPONSE TO IMMUNE CHECKPOINT INHIBITORS AND FUNCTIONAL TESTS TO PREDICT RESPONSE” (Biomarker Strategies, LLC, priority 2019, published 2022)", "molecules": {"B1": {"name": "IFNγ: human IFNγ, modulator (10 ng/ml; Sigma Aldrich) (protein, UniProt P01579 24-161, looked up)", "Interferon gamma": "QDPYVKEAENLKKYFNAGHSDVADNGTLFLGILKNWKEESDRKIMQSQIVSFYFKLFKNFKDDQSIQKSVETIKEDMNVKFFNSNKKKRDDFEKLTNYSVTDLNVQRKAIHELIQVMAELSPAAKTGKRKRSQMLFRG"}}, "test_in_all_cases": "PD-L1 mRNA one step RT-qPCR, IFNγ treatment", "type_in_all_cases": "cell-based, human", "key": {"H1299 cells": {"test_system": "H1299 cells", "details": "10 ng/mL IFNγ for 24h, 2^-ΔΔCt normalized by GAPDH", "method": "(§1) Additionally, the presence, abundance and ratio of different PD-L1 mRNA forms can be used to predict response. As way of example, PD-L1 mRNA were measured using primers amplifying within exon 3-4 (extracellular region of the transcribed protein that interacts with PD1). Other amplicons detecting the same or other forms can be used readily. For example, amplicons corresponding to the transmembrane and cytoplasmic tail to confirm full length plasma membrane bound protein is transcribed, or regions overlapping with either PD1 or anti-PD-L1 binding sites. Five cell lines (H460, H1299, H1650, H2126 and SKMES1) were treated with vehicle or 10 ng/mL IFNγ for 24h. More complex sample types, including cells isolated from solid tumors from preclinical and clinical cancers be used. Other time points, including those as early as 1h for IRF or 4h for PD-L1, can be readily used. RNA was isolated from the cells using an NEB kit (Cat #T2010) per the manufacturer's instructions. Isolated RNA was estimated using a NanoDrop […] and checked for its quality by checking the 260/280 ratio. RNA concentration was brought to 40 ng/uL in all the samples to take equal quantity for further steps of RT and real time PCR. One step RT-qPCR was performed using a Power SYBR Green RNA to Ct One step kit (Cat #4931198) as per the manufacturer's instructions. A 200 ng RNA template was taken for total 20 uL reaction per well in 96 well PCR microplate for Roche 480 Light cycler. The following primer pairs (Sigma) were used for PD-L1 and GAPDH and were used at a concentration in the reaction mixture of 400 nM:\n(§2) A Roche 480 Light cycler was used for performing the one step real time PCR. Data was analyzed using 2^-ΔΔCt method normalized by GAPDH for relative levels. Alternative housekeeper genes may be readily used."}, "H1650 cells": {"test_system": "H1650 cells", "details": "10 ng/mL IFNγ for 24h, 2^-ΔΔCt normalized by GAPDH", "method": "as §1, §2"}, "H2126 cells": {"test_system": "H2126 cells", "details": "10 ng/mL IFNγ for 24h, normalized by GAPDH", "method": "as §1, §2"}, "SKMES1 cells": {"test_system": "SKMES1 cells", "details": "10 ng/mL IFNγ for 24h, normalized by GAPDH", "method": "as §1, §2"}, "H460 cells": {"test_system": "H460 cells", "details": "10 ng/mL IFNγ for 24h, normalized by GAPDH", "method": "as §1, §2"}}}
{"molecule": "B1", "values": [{"measurement": "relative increase of PD-L1 mRNA upon IFNγ exposure", "setting": "H1299 cells", "value": 1.7, "unit": "fold"}, {"measurement": "relative increase of PD-L1 mRNA upon IFNγ exposure", "setting": "H1650 cells", "value": 2.2, "unit": "fold"}, {"measurement": "change of PD-L1 mRNA upon IFNγ exposure", "setting": "H2126 cells", "value": "decrease"}, {"measurement": "change of PD-L1 mRNA upon IFNγ exposure", "setting": "SKMES1 cells", "value": "no change"}, {"measurement": "change of PD-L1 mRNA upon IFNγ exposure", "setting": "H460 cells", "value": "decrease"}]}
